Experimental data from patent publication US6444793.

Target: patched (receptor for Shh), on patched-transfected EBNA-293 cells
Assay: FACS competition with Shh-Ig on patched-transfected EBNA-293 cells

patched (receptor for Shh), on patched-transfected EBNA-293 cells, sequence (A3KBI9 whole entry): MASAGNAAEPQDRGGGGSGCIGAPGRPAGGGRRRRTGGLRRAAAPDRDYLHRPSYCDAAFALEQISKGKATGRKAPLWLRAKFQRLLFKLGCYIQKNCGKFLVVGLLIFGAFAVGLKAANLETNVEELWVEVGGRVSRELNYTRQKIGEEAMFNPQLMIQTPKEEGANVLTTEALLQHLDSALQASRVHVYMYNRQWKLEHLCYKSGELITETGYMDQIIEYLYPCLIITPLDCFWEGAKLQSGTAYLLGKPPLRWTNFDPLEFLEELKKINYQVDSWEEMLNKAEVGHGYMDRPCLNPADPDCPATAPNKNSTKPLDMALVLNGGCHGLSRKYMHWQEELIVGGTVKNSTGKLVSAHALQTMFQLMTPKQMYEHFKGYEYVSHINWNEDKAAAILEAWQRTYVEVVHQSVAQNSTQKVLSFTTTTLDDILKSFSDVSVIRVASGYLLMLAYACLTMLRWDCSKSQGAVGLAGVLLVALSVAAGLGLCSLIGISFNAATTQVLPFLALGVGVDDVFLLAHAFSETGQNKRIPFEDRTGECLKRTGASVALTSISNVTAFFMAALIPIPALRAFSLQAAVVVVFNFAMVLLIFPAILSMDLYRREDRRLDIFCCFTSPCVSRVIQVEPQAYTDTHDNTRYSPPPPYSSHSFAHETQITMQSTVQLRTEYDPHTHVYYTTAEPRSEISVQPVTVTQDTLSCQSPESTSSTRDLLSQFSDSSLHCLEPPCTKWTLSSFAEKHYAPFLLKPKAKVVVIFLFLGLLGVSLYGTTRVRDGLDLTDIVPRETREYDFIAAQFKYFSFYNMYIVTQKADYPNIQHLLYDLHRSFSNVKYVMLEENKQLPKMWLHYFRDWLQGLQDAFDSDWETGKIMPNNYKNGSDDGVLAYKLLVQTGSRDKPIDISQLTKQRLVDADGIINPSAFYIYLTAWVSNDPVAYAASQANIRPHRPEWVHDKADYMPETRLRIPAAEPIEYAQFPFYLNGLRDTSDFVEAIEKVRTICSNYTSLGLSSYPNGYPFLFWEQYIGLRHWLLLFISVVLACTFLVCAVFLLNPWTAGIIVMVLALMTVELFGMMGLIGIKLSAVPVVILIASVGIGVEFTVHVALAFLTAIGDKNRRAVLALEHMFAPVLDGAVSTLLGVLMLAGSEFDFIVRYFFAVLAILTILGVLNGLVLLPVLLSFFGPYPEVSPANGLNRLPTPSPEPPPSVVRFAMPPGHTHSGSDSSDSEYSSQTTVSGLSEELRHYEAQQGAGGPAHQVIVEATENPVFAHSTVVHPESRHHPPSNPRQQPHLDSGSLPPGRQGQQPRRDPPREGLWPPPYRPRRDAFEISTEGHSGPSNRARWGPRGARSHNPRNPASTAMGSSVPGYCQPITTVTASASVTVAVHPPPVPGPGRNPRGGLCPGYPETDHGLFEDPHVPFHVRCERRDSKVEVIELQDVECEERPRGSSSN

Row | Substance | IC50
1 | soluble human Sonic hedgehog N-terminal fragment (unmodified, Cys-1 to Gly-174, produced in E. coli) (from UniProt Q14623 28-201) (ligand) | 0.15 µg/mL
2 | tethered human Sonic hedgehog (N-terminal fragment with a palmitoyl group at the N-terminus and cholesterol at the C-terminus, purified from High Five insect cells) (from UniProt Q14623 28-201) (ligand) | 0.4 µg/mL
